From article PMC11417181, “The SCR-17 and SCR-18 glycans in human complement factor H enhance its regulatory function” (The Journal of Biological Chemistry, 2024)
glycan = not defined here

Assays:
[1] = target: the molecule itself; experiment: AUC; sedimentation velocity of the SCR fragments, 20 °C, 50,000 rpm, Hepes buffer (10 mM Hepes, 137 mM NaCl, pH 7.4), c(s) analysis in SEDFIT, proportions of monomer and dimer from peak integration; monomer to dimer
[2] = target: the molecule itself; experiment: as above; remark: listed apart in the source
complement C3b = target: T1, complement C3b (human, UniProt P01024 23-667; P01024 749-1663, free thiol group in C3b blocked with iodoacetamide (the paper does not say on which chain)); experiment: SPR; Biacore X100, C3b amine-coupled to a CM5 chip, CFH preparations flowed at 0.05 to 7.75 μM, 25 °C, Hepes buffer with 0.005% Tween20, single-cycle, 1:1 steady-state affinity fit; conditions: both partners purified
T1 construct: Amine-coupled to a CM5 chip in the SPR experiment
T1 sequence (P01024 23-667, chain 1 of 2): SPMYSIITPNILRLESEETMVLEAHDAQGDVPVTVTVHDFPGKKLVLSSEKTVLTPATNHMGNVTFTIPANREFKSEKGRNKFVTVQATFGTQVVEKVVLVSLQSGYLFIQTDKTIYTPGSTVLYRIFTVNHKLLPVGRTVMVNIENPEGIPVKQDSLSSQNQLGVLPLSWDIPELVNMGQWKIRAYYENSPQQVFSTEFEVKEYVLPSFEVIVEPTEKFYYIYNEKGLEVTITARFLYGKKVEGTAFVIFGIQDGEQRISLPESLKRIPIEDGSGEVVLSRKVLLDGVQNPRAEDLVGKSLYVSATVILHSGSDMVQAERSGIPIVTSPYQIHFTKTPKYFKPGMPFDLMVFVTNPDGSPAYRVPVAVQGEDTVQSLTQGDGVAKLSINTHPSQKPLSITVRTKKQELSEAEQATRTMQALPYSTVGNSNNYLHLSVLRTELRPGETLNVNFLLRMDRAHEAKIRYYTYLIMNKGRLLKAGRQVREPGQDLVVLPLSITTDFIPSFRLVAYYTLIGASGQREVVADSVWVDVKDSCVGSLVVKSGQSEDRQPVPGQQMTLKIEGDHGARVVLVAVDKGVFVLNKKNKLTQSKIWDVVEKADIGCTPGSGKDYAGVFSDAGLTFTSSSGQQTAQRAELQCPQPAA
T1 sequence (P01024 749-1663, chain 2 of 2): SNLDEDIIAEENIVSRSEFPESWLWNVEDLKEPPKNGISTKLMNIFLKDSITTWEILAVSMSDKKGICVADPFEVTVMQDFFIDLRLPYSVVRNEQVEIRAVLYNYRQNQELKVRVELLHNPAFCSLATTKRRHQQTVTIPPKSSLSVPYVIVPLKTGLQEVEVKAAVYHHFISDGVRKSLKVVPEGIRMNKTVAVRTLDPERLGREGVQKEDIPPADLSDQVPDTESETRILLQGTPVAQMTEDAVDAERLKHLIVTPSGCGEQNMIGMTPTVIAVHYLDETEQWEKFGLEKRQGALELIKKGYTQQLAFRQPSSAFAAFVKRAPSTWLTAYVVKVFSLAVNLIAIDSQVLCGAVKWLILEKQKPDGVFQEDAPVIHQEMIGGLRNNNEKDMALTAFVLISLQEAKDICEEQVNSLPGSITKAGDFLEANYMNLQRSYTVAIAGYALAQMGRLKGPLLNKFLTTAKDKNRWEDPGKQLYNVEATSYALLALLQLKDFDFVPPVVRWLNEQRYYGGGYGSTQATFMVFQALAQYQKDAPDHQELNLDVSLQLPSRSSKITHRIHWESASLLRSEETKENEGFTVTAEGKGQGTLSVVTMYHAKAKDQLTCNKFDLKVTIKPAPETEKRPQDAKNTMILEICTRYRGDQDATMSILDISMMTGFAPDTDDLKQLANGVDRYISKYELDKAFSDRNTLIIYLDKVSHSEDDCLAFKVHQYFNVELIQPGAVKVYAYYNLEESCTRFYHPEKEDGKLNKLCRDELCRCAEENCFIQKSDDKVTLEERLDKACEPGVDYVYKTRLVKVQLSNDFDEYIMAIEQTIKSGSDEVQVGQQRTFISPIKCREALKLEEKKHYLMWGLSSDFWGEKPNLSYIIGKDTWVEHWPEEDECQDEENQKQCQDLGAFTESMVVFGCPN

B1: SCR-18H, glycosylated single-domain fragment of complement factor H expressed in Pichia pastoris (domain or fragment)
chain: RDTSCVNPPTVQNAYIVSRQMSKYPSGERVRYQCRSPYEMFGDEEVMCLNGN(glycan)WTEPPQCKDST
modifications: reading uncertain; also: N-linked hyperglycosylation (Pichia) at Asn1077, recombinant protein
stoichiometry N [1]: 2 | proportion of dimer [2]: 57%

B2: SCR-16/20, glycosylated five-domain C-terminal fragment of complement factor H expressed in Pichia pastoris (domain or fragment)
chain: EGLPCKSPPEISHGVVAHMSDSYQYGEEVTYKCFEGFGIDGPAIAKCLGEKWSHPPSCIKTDCLSLPSFENAIPMGEKKDVYKAGEQVTYTCATYYKMDGASNVTCINSRWTGRPTCRDTSCVNPPTVQNAYIVSRQMSKYPSGERVRYQCRSPYEMFGDEEVMCLNGNWTEPPQCKDSTGKCGPPPPIDNGDITSFPLSVYAPASSVEYQCQNLYQLEGNKRITCRNGQWSEPPKCLHPCVISREIMENYNIALRWTAKQKLYSRTGESVEFVCKRGYRLSSRSHTLRTTCWDGKLEYPTCAKR
modifications: Pichia hyperglycosylated N-linked glycans at Asn1011 and Asn1077
stoichiometry N [1]: 2 | proportion of dimer [2]: 8%

B3: SCR-16/20 deglycosylated with PNGase F (domain or fragment)
chain: B2 chain
modifications: N-linked glycans at Asn1011 and Asn1077 removed with PNGase F
stoichiometry N [1]: 2 | proportion of dimer [2]: 2%

B4: SCR-17H, glycosylated single-domain fragment of complement factor H expressed in Pichia pastoris (domain or fragment)
chain: IKTDCLSLPSFENAIPMGEKKDVYKAGEQVTYTCATYYKMDGASN(glycan)VTCINSRWTGRPTCRDTS
modifications: reading uncertain; also: N-linked hyperglycosylation (Pichia) at Asn1011, recombinant protein
stoichiometry N [1]: 2 | proportion of dimer [2]: 67%

B5: SCR-17/18H, glycosylated two-domain fragment of complement factor H expressed in Pichia pastoris (domain or fragment)
chain: IKTDCLSLPSFENAIPMGEKKDVYKAGEQVTYTCATYYKMDGASNVTCINSRWTGRPTCRDTSCVNPPTVQNAYIVSRQMSKYPSGERVRYQCRSPYEMFGDEEVMCLNGNWTEPPQCKDST
modifications: Pichia hyperglycosylated N-linked glycans (Man8-18GlcNAc2) at Asn1011 and Asn1077
stoichiometry N [1]: 2 | proportion of dimer [2]: 72%

B6: complement factor H, native glycosylated, full-length, purified from human plasma (natural protein, UniProt P08603 19-1231, looked up)
chain: EDCNELPPRRNTEILTGSWSDQTYPEGTQAIYKCRPGYRSLGNVIMVCRKGEWVALNPLRKCQKRPCGHPGDTPFGTFTLTGGNVFEYGVKAVYTCNEGYQLLGEINYRECDTDGWTNDIPICEVVKCLPVTAPENGKIVSSAMEPDREYHFGQAVRFVCNSGYKIEGDEEMHCSDDGFWSKEKPKCVEISCKSPDVINGSPISQKIIYKENERFQYKCNMGYEYSERGDAVCTESGWRPLPSCEEKSCDNPYIPNGDYSPLRIKHRTGDEITYQCRNGFYPATRGNTAKCTSTGWIPAPRCTLKPCDYPDIKHGGLYHENMRRPYFPVAVGKYYSYYCDEHFETPSGSYWDHIHCTQDGWSPAVPCLRKCYFPYLENGYNQNYGRKFVQGKSIDVACHPGYALPKAQTTVTCMENGWSPTPRCIRVKTCSKSSIDIENGFISESQYTYALKEKAKYQCKLGYVTADGETSGSITCGKDGWSAQPTCIKSCDIPVFMNARTKNDFTWFKLNDTLDYECHDGYESNTGSTTGSIVCGYNGWSDLPICYERECELPKIDVHLVPDRKKDQYKVGEVLKFSCKPGFTIVGPNSVQCYHFGLSPDLPICKEQVQSCGPPPELLNGNVKEKTKEEYGHSEVVEYYCNPRFLMKGPNKIQCVDGEWTTLPVCIVEESTCGDIPELEHGWAQLSSPPYYYGDSVEFNCSESFTMIGHRSITCIHGVWTQLPQCVAIDKLKKCKSSNLIILEEHLKNKKEFDHNSNIRYRCRGKEGWIHTVCINGRWDPEVNCSMAQIQLCPPPPQIPNSHNMTTTLNYRDGEKVSVLCQENYLIQEGEEITCKDGRWQSIPLCVEKIPCSQPPQIEHGTINSSRSSQESYAHGTKLSYTCEGGFRISEENETTCYMGKWSSPPQCEGLPCKSPPEISHGVVAHMSDSYQYGEEVTYKCFEGFGIDGPAIAKCLGEKWSHPPSCIKTDCLSLPSFENAIPMGEKKDVYKAGEQVTYTCATYYKMDGASNVTCINSRWTGRPTCRDTSCVNPPTVQNAYIVSRQMSKYPSGERVRYQCRSPYEMFGDEEVMCLNGNWTEPPQCKDSTGKCGPPPPIDNGDITSFPLSVYAPASSVEYQCQNLYQLEGNKRITCRNGQWSEPPKCLHPCVISREIMENYNIALRWTAKQKLYSRTGESVEFVCKRGYRLSSRSHTLRTTCWDGKLEYPTCAKR
modifications: eight N-linked biantennary complex-type glycans, among them those at Asn1011 (SCR-17) and Asn1077 (SCR-18)
notes: human complement factor H, 20 SCR domains, Tyr402 form; For the SPR self-association experiment the immobilised copy was biotinylated (EZ-Link Biotinylation kit) and captured on a streptavidin chip; the copy in solution was not labelled; also called CFH; native CFH
Kd (complement C3b): 900 ± 60 nM

B7: fully deglycosylated complement factor H (200 h PNGase F) (natural protein, human, UniProt P08603 19-1231, looked up)
chain: B6 chain
modifications: N-linked glycans removed with PNGase F: eight, seven, six or five removed, leaving none, one, two or three glycans
notes: Mixture of forms with none to three glycans left; also called fully deglycosylated CFH; CFH-De; source: purified from human plasma, then PNGase F for 200 h at 37 °C, gel filtration
Kd (complement C3b): 3780 ± 450 nM

B8: partially deglycosylated complement factor H (100 h PNGase F) (natural protein, human, UniProt P08603 19-1231, looked up)
chain: B6 chain
modifications: N-linked glycans partly removed with PNGase F: forms with three to six glycan chains were present
notes: Mixture of glycoforms; also called partially deglycosylated CFH; CFH partially glycosylated; source: purified from human plasma, then PNGase F for 100 h at 37 °C, gel filtration
Kd (complement C3b): 2530 ± 420 nM

B9: SCR-16/18H, glycosylated three-domain fragment of complement factor H expressed in Pichia pastoris (domain or fragment)
chain: EGLPCKSPPEISHGVVAHMSDSYQYGEEVTYKCFEGFGIDGPAIAKCLGEKWSHPPSCIKTDCLSLPSFENAIPMGEKKDVYKAGEQVTYTCATYYKMDGASNVTCINSRWTGRPTCRDTSCVNPPTVQNAYIVSRQMSKYPSGERVRYQCRSPYEMFGDEEVMCLNGNWTEPPQCKDST
modifications: Pichia hyperglycosylated N-linked glycans at Asn1011 and Asn1077
stoichiometry N [1]: 2 | proportion of dimer [2]: 78%

B10: SCR-16/18H deglycosylated with PNGase F (domain or fragment)
chain: B9 chain
modifications: N-linked glycans at Asn1011 and Asn1077 treated with PNGase F (the paper suggests that removal may have been impeded)
stoichiometry N [1]: 2 | proportion of dimer [2]: 63%
